Measured values from patent US20220042033A1, “COMPOSITION AND METHOD FOR CONFERRING AND/OR ENHANCING TOLERANCE AGAINST HERBICIDES BY USING VARIANTS OF PPO” (FarmHannong Co., Ltd., priority 2017, published 2022).
Changes are numbered by the printed parent chain. In names and notes the source's numbering stands.

B1: R140A + V213C + A215L + Y422M: ApPPO1 (SEQ ID NO: 1) variant (protein)
chain: MPFTHLKPLNRLLGSPRARHPHVAPQAVSVTNTSTTRPGGRSSAPGIPGDAEYDVVIVGAGISGLTTAQALAKQYSDAVPRLLVTEARDCVGGNIITRRDGGYQWEEGPNSFQPSDAVLRAAVDAGVADRLVLGDPKAPAYVYWGGRLRATPSGPDVLTFDLLSLWGKLRAGLGAAGFKAPLPEREESVKEFVTRNLGEEVFQRLIEPFCSGCYLGDPAKLSMKAAFGKVYDLEKGGGSIVGGVLALMKARKQKPPEPRPADLPPKPKGQTVGSFDKGLVTLPSAIAEELGDRVVTGWKLESIDRSGDRFQLTYDTPQGRKKVSARSVALTVPAYTAASLLESRFPKLGKALSSIYYPPVASVALSYPETAILPERLGSDGHLAGFGQLHPRTQGVTTLGTIYASSLFPGRVPEGKVLLLSMFGGATNTRVATMPHGEIVSQVDKDLRKMLIRSDAESPHTVNVTVWPRAIPQFNVGHTDLIQEAKDDLASQGWQGLHLGGNYVAGVALGKCMEAGYKQAAELASHVKSLAT
modifications: Synthetic (Protoporphyrinogen IX oxidase (ApPPO1) of Auxenochlorella protothecoides)
B2: V213C + Y422I: ApPPO1 (SEQ ID NO: 1) variant (protein)
chain: B1 chain with A140R, L215A, M422I
modifications: Synthetic (Protoporphyrinogen IX oxidase (ApPPO1) of Auxenochlorella protothecoides)
B3: R140A + Y422I: ApPPO1 (SEQ ID NO: 1) variant (protein)
chain: B1 chain with C213V, L215A, M422I
modifications: Synthetic (Protoporphyrinogen IX oxidase (ApPPO1) of Auxenochlorella protothecoides)
B4: R140A + Y422T: ApPPO1 (SEQ ID NO: 1) variant (protein)
chain: B1 chain with C213V, L215A, M422T
modifications: Synthetic (Protoporphyrinogen IX oxidase (ApPPO1) of Auxenochlorella protothecoides)
B5: V164A: MxPPO (SEQ ID NO: 3) variant (protein)
chain: MHHMPRTTGMNVAVVGGGISGLAVAHHLRSRGTDAVLLESSARLGGAVGTHALAGYLVEQGPNSFLDREPATRALAAALNLEGRIRAADPAAKRRYVYTRGRLRSVPASPPAFLASDILPLGARLRVAGELFSRRAPEGVDESLAAFGRRHLGHRATQVLLDAAQTGIYAGDVEQLSVAATFPMLVKMEREHRSLILGAIRAQKAQRQAALPAGTAPKLSGALSTFDGGLQVLIDALAASLGDAAHVGARVEGLAREDGGWRLIIEEHGRRAELSVAQVVLAAPAHATAKLLRPLDDALAALVAGIAYAPIAVVHLGFDAGTLPAPDGFGFLVPAEEQRRMLGAIHASTTFPFRAEGGRVLYSCMVGGARQPGLVEQDEDALAALAREELKALAGVTARPSFTRVFRWPLGIPQYNLGHLERVAAIDAALQRLPGLHLIGNAYKGVGLNDCIRNAAQLADALVAGNTSHAP
modifications: Synthetic (Protoporphyrinogen IX oxidase (MxPPO) of Myxococcus xanthus)
B6: F329V: MxPPO (SEQ ID NO: 3) variant (protein)
chain: B5 chain with A164V, F329V
modifications: Synthetic (Protoporphyrinogen IX oxidase (MxPPO) of Myxococcus xanthus)
B7: M365T: MxPPO (SEQ ID NO: 3) variant (protein)
chain: B5 chain with A164V, M365T
modifications: Synthetic (Protoporphyrinogen IX oxidase (MxPPO) of Myxococcus xanthus)
B8: R95A + M365I: MxPPO (SEQ ID NO: 3) variant (protein)
chain: B5 chain with R95A, A164V, M365I
modifications: Synthetic (Protoporphyrinogen IX oxidase (MxPPO) of Myxococcus xanthus)
B9: M365V: MxPPO (SEQ ID NO: 3) variant (protein)
chain: B5 chain with A164V, M365V
modifications: Synthetic (Protoporphyrinogen IX oxidase (MxPPO) of Myxococcus xanthus)
B10: L332T: MxPPO (SEQ ID NO: 3) variant (protein)
chain: B5 chain with A164V, L332T
modifications: Synthetic (Protoporphyrinogen IX oxidase (MxPPO) of Myxococcus xanthus)
B11: I345T: MxPPO (SEQ ID NO: 3) variant (protein)
chain: B5 chain with A164V, I345T
modifications: Synthetic (Protoporphyrinogen IX oxidase (MxPPO) of Myxococcus xanthus)
B12: I168C: MxPPO (SEQ ID NO: 3) variant (protein)
chain: B5 chain with A164V, I168C
modifications: Synthetic (Protoporphyrinogen IX oxidase (MxPPO) of Myxococcus xanthus)
B13: A170C: MxPPO (SEQ ID NO: 3) variant (protein)
chain: B5 chain with A164V, A170C
modifications: Synthetic (Protoporphyrinogen IX oxidase (MxPPO) of Myxococcus xanthus)
B14: R95A + M365V: MxPPO (SEQ ID NO: 3) variant (protein)
chain: B5 chain with R95A, A164V, M365V
modifications: Synthetic (Protoporphyrinogen IX oxidase (MxPPO) of Myxococcus xanthus)
B15: R95A: MxPPO (SEQ ID NO: 3) variant (protein)
chain: B5 chain with R95A, A164V
modifications: Synthetic (Protoporphyrinogen IX oxidase (MxPPO) of Myxococcus xanthus)
B16: M365I: MxPPO (SEQ ID NO: 3) variant (protein)
chain: B5 chain with A164V, M365I
modifications: Synthetic (Protoporphyrinogen IX oxidase (MxPPO) of Myxococcus xanthus)

Tested on: ApPPO1
Assay: Herbicide tolerance test of ApPPO1 wild type and variants in PPO-deficient E. coli BT3(ΔPPO), growth on herbicide-containing LB agar
Type: cell-based, Auxenochlorella protothecoides
Settings: relative to ApPPO1 WT, dark, up to 100 μM (FIGS. 7-12)
Description: Then, the extent of tolerance was evaluated.

Molecule	Herbicide tolerance, flumioxazin
B1	+++++ (more than 10,000 fold higher tolerance)
B2	+++++ (more than 10,000 fold higher tolerance)
B3	+++++ (more than 10,000 fold higher tolerance)
B4	++++ (1,000-9,999 fold higher tolerance)

Same assay, conditions: relative to ApPPO1 WT, dark, up to 200 μM (FIGS. 7-12)

Molecule	Herbicide tolerance, tiafenacil
B1	+++++ (more than 10,000 fold higher tolerance)
B2	++++ (1,000-9,999 fold higher tolerance)
B3	+++++ (more than 10,000 fold higher tolerance)
B4	++++ (1,000-9,999 fold higher tolerance)

Same assay, conditions: relative to ApPPO1 WT, dark, up to 400 μM (FIGS. 7-12)

Molecule	Herbicide tolerance, sulfentrazone
B1	++++ (1,000-9,999 fold higher tolerance)
B2	+++ (100-999 fold higher tolerance)
B3	++++ (1,000-9,999 fold higher tolerance)
B4	+++ (100-999 fold higher tolerance)

Tested on: MxPPO
Assay: PPO enzyme activity of purified MBP-fused MxPPO wild type and variants
Type: biochemical, Myxococcus xanthus
Settings: PPO enzyme activity of purified MxPPO protein, relative to wild type
Description: Thus, PPO proteins of wild type and variants were expressed as fused to MBP and were used for experiments.
The following process for purification of PPO protein was performed in a 4° C. cold room. […] The column was washed with 3 column volumes of buffer and the presence of protein in the washing solution was examined. When the protein was no longer detected, the washing procedure was terminated. Then, the MBP-PPO protein was eluted with approximately 2 column volumes of buffer containing 20 mM maltose. The protein concentration of each eluent was determined and the elution was stopped when the protein was no longer detected. Ten microliter of each fraction was investigated for protein quantification and SDS-PAGE analysis. The highly pure fractions of PPO protein variants were used for the enzyme assay.
Since protoporphyrinogen IX, a substrate of PPO protein, was not commercially available, it was chemically synthesized in the laboratory. Overall process was performed in dark under nitrogen stream. […] of protoporphyrin IX was dissolved in 20 ml of 20% (v/v) EtOH, and stirred under dark condition for 30 minutes. The obtained protoporphyrin IX solution was put into a 15 ml screw tube in an amount of 800 μl, and flushed with nitrogen gas for 5 minutes. To this, 1.5 g of sodium amalgam was added and vigorously shaken for 2 minutes. The lid was opened to exhaust hydrogen gas in the tube. Thereafter, the lid was closed and incubated for 3 minutes. The protoporphyrinogen IX solution was filtered using syringe and cellulose membrane filter. To 600 μl of the obtained protoporphyrinogen IX solution, approximately 300 μl of 2M MOPS [3-(N-morpholino) propanesulfonic acid] was added to adjust pH to 8.0. To determine the enzyme activity of PPO protein, a reaction mixture was prepared with the following composition (based on 10 ml): 50 mM Tris-Cl (pH 8.0); 50 mM NaCl; 0.04% (v/v) Tween 20; 40 mM glucose (0.072 g); 5 units glucose oxidase (16.6 mg); and 10 units catalase (1 μl).
Hundred and eighty microliters of a reaction mixture […] were placed in 96 well plates and 20 μl of purified PPO proteins were added. After 50 μl of the mineral oil was layered, the reaction was initiated by adding the substrate, protoporphyrinogen IX solution, to a final concentration of 50 μM. The reaction proceeded at room temperature for 30 min and the fluorescence of protoporphyrin IX was measured using Microplate reader (Sense, Hidex) (excitation: 405 nm; emission: 633 nm). To calculate the PPO enzyme activity, the protoporphyrinogen IX solution was kept open in the air overnight to oxidize the solution. To this, 2.7 N HCl was added, and the absorbance at 408 nm was measured. A standard curve was generated using standard protoporphyrin IX, and PPO activity was measured by calibration of protoporphyrin IX using the standard curve of protoporphyrin IX.
Activities of variants were presented relatively compared to that of wild type.

Molecule	Activity (%)
B5	75%
B6	91%
B7	52%
B8	42%
B9	77%
B10	87%
B11	33%
B12	47%
B13	86%
B14	40%
B15	43%
B16	82%
